In publication doi:10.1101/2025.11.24.690281 one finds fold increase of the interaction against unphosphorylated GST-LRP6 data, which are given here for one substance.

The target in this assay is GST-tagged intracellular c-terminus of LRP6, in vitro phosphorylated with GSK3 and CK1. Description: pull-down.

Regarding “Strep-tag-Mena-EVH1-CC (domain or fragment)”, the fold increase of the interaction against unphosphorylated GST-LRP6 worked out at 20 fold.
